US20260191943A1, “Methods for Preparing Conjugated Capsular Saccharide Antigens and Uses Thereof” (PFIZER INC., priority 2022, published 2026)
Square brackets hold non-standard residues; d marks the D form. Ends that are not written are not given here. Pra = C#CC[C@H](N)C(=O)O

Assay: PADRE peptide solubility / staying in solution
Format: physicochemical
Protocol: It is possible that the PADRE constructs disclosed herein may have solubility limitations in aqueous solutions (<5 mg/ml max concentration) versus DMSO solutions (<10 mg/ml max concentration), so conditions for PADRE solubility were adjusted to achieve optimum click conjugation efficiency. Ionic gelling may have occurred during the CDAP or DMTMM direct incorporation of PADRE 2, as buffer matrix with high ionic strength in higher concentrated Pn3 solutions promotes gelling. Aggregation with an alkynated CRM197 batch fed approach was also observed in click conjugation reactions. To avoid potential solubility issues, the following conditions with PADRE 3 were proposed: 1. Lower the ionic strength of the reaction matrix and diafiltration matrix to 10 mM phosphate pH 7.0, 2. Slow dose addition of alkynated PADRE 3 into the reaction, and 3. make stock solution of alkynated PADRE 3 in water instead of DMSO to eliminate the need for a lyophilization step.
A reaction was run omitting DMSO from a click conjugate protocol for alkynated trimeric gp120 Epitope mimic peptides using 5 mM Sodium ascorbate, 5 mM aminoguanidine, 0.1 mM CuSO4, and 0.5 mM THPTA ligand in 10 mM phosphate buffer at pH 7.4 containing 5% DMSO for 18 hr [Schellinger et al. (2011) J Am Chem Soc 133(10):3230-3233]. […]

**Q.** Which peptide solution solubility (37° C. in the incubator at 200 rpm agitation, DMSO omitted) does the source give for “{d-ALA}KVAAWTLKAA{d-ALA}{Pra} ([dA]KVAAWTLKAA[dA][Pra]) [PADRE 3]” here?
**A.** stayed soluble

**Q.** And the “stock solution staying in solution” value (alkynated PADRE 3 stock in water, after 18 hr at room temperature)?
**A.** did not come out of solution
